Test results reported in the supplement of paper PMC6755084.

These sequences were tested on F1*sub RNA substrate (template-directed ligation) (assay: fraction ligated after 30 min (ligated reads / total reads); higher = more ligase activity; sequences stand for … in GAGACCGCAACTGAAAAGTTGT…AGTTCTGCACGTAGAAGCAAAAGGC). Details: 42 °C.
How it was run: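 Templates from an oligo pool were PCR-amplified, transcribed with T7 and gel-purified to give the ribozyme variants. Ligated and unligated products were separated on gel, reverse transcribed using barcoded primers, and read on a MiSeq. A quality filter of ≥20 was applied to core bases. Fraction ligated was taken as ligated reads as a share of all reads per variant.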

Sequence	fraction ligated
TATCACTTGCTAAGAACTTTGGATGGGTTGA [3d1603]	0.831
TATCACTTGCTAAGACACTTGGATGGGTTGA [3d1606]	0.782
TATCACTTGCTAAGACACTTTGATGGGTTGA [3d1607]	0.738
TATCACTTGCTAAGACACTTTGGAGGGTTGA [3d1609]	0.13
TATCACTTGCTAAGACACTTTGGATGGGTTA [3d1611]	0.773
TATCACTTGCTAAGACACTTTGGATGGGTTG [3d1612]	0.8
TATCACTTGCTAAGACACTTTGGATGGGTTGA [2d164]	0.822
TATCACTTGCTAAGACACTTTGGATGGTTGA [3d1610]	0.351
TATCACTTGCTAAGACACTTTGGTGGGTTGA [3d1608]	0.11
TATCACTTGCTAAGACATTTGGATGGGTTGA [3d1605]	0.849
TATCACTTGCTAAGACCTTTGGATGGGTTGA [3d1604]	0.811
TATCACTTGCTAAGCACTTTGGATGGGTTGA [3d1602]	0.834
TATCACTTGCTAGACACTTTGGATGGGTTGA [3d1600]	0.805
TATCACTTGGAAGACACTTTGGATGGGTTGA [3d1585]	0.823
TATCACTTGGTAAACACTTTGGATGGGTTGA [3d1587]	0.826
TATCACTTGGTAAGAACTTTGGATGGGTTGA [3d1589]	0.804
TATCACTTGGTAAGACACTTGGATGGGTTGA [3d1592]	0.795
TATCACTTGGTAAGACACTTTGATGGGTTGA [3d1593]	0.776
TATCACTTGGTAAGACACTTTGGAGGGTTGA [3d1595]	0.0523

Sequence	fraction ligated
TATCACTTGGTAAGACACTTTGGATGGGTTA [3d1597]	0.733
TATCACTTGGTAAGACACTTTGGATGGGTTG [3d1598]	0.809
TATCACTTGGTAAGACACTTTGGATGGGTTGA [2d163]	0.813
TATCACTTGGTAAGACACTTTGGATGGTTGA [3d1596]	0.134
TATCACTTGGTAAGACACTTTGGTGGGTTGA [3d1594]	0.047
TATCACTTGGTAAGACATTTGGATGGGTTGA [3d1591]	0.832
TATCACTTGGTAAGACCTTTGGATGGGTTGA [3d1590]	0.765
TATCACTTGGTAAGCACTTTGGATGGGTTGA [3d1588]	0.818
TATCACTTGGTAGACACTTTGGATGGGTTGA [3d1586]	0.829
TATCACTTGTAAGACACTTTGGATGGGTTGA [3d1311]	0.837
TATCACTTGTCAAACACTTTGGATGGGTTGA [3d1811]	0.802
TATCACTTGTCAAGAACTTTGGATGGGTTGA [3d1813]	0.839
TATCACTTGTCAAGACACTTGGATGGGTTGA [3d1816]	0.76
TATCACTTGTCAAGACACTTTGATGGGTTGA [3d1817]	0.715
TATCACTTGTCAAGACACTTTGGAGGGTTGA [3d1819]	0.138
TATCACTTGTCAAGACACTTTGGATGGGTTA [3d1821]	0.781
TATCACTTGTCAAGACACTTTGGATGGGTTG [3d1822]	0.777
TATCACTTGTCAAGACACTTTGGATGGGTTGA [2d194]	0.809
TATCACTTGTCAAGACACTTTGGATGGTTGA [3d1820]	0.288

Sequence	fraction ligated
TATCACTTGTCAAGACACTTTGGTGGGTTGA [3d1818]	0.128
TATCACTTGTCAAGACATTTGGATGGGTTGA [3d1815]	0.829
TATCACTTGTCAAGACCTTTGGATGGGTTGA [3d1814]	0.762
TATCACTTGTCAAGCACTTTGGATGGGTTGA [3d1812]	0.785
TATCACTTGTCAGACACTTTGGATGGGTTGA [3d1810]	0.824
TATCACTTGTCGAAAACTTTGGATGGGTTGA [3d1915]	0.798
TATCACTTGTCGAAACACTTGGATGGGTTGA [3d1918]	0.776
TATCACTTGTCGAAACACTTTGATGGGTTGA [3d1919]	0.721
TATCACTTGTCGAAACACTTTGGAGGGTTGA [3d1921]	0.0563
TATCACTTGTCGAAACACTTTGGATGGGTTA [3d1923]	0.756
TATCACTTGTCGAAACACTTTGGATGGGTTG [3d1924]	0.817
TATCACTTGTCGAAACACTTTGGATGGTTGA [3d1922]	0.0984
TATCACTTGTCGAAACACTTTGGTGGGTTGA [3d1920]	0.0386
TATCACTTGTCGAAACATTTGGATGGGTTGA [3d1917]	0.821
TATCACTTGTCGAAACCTTTGGATGGGTTGA [3d1916]	0.78
TATCACTTGTCGAACACTTTGGATGGGTTGA [3d1903]	0.802
TATCACTTGTCGAAGAACTTGGATGGGTTGA [3d1936]	0.794
TATCACTTGTCGAAGAACTTTGATGGGTTGA [3d1937]	0.796
